The target of assay [1] is hybrid regulatory protein encoded by plasmid p1009 (GAL4 residues 1-147, functional wild-type Coxsackievirus 3C protease linker, GAL4 residues 768-881) (yeast S. cerevisiae; Coxsackievirus (CVB3)) (UniProt P03313).
The target in assay [2] is hybrid regulatory protein encoded by plasmid pHP236 (GAL4 residues 1-147, functional HIV-1 protease linker, GAL4 residues 768-881) (yeast S. cerevisiae; HIV-1 (λHXB-2 subclone)) (UniProt P04585).

With “hybrid regulatory protein encoded by plasmid p1009 (GAL4 residues 1-147, functional wild-type Coxsackievirus 3C protease linker, GAL4 residues 768-881) (from UniProt P03313) (enzyme)”, the β-Galactosidase Activity (MUG units), GAL1-lacZ reporter in yeast GGY1::171 in assay [1] is 14 MUG units.

Regarding “hybrid regulatory protein encoded by plasmid pHP236 (GAL4 residues 1-147, functional HIV-1 protease linker, GAL4 residues 768-881) (from UniProt P04585) (enzyme)”, the β-Galactosidase Activity (MUG units), GAL1-lacZ reporter in yeast GGY1::171 in assay [2] turned out to be 68 MUG units.

The values above are taken from US5721133.
